What was measured:
[1] = system: cultured endothelial cells; experiment: Labeled glucosamine administered to cultured endothelial cells; assay type: cell-based
Source text: Indeed, glucosamine can increase synthesis of two main constituents of the endothelial glycocalyx, namely heparan sulfate and hyaluronan. […] Thus, the addition and/or administration of glucosamine can support endothelial glycocalyx production by providing a (necessary and/or rate-limiting) component in the synthesis thereof. Accordingly, glucosamine can be or comprise a molecular precursor of endothelial glycocalyx.

[2] = system: endothelial glycocalyx; experiment: Exogenous labeled SOD administered to mice, localization; assay type: in vivo; details: orally and/or intravenously
Source text: By so doing, the local concentration of SOD at the endothelial glycocalyx is increased, providing added or enhanced (site-directed) protection against oxygen radicals at the endothelial glycocalyx. Thus, in addition to (naturally) produced SOD, which may be synthesized and bound to the endothelium, exogenous or administered SOD can (directly) associate with (bind to) endothelial glycocalyx. Accordingly, introduction and/or administration of SOD can provide site-directed antioxidant activity at the endothelial glycocalyx.

[3] = Catalase administered to mice, concentration in blood vessels; assay type: in vivo; details: oral and/or intravenous administration
Source text: Thus, in addition to (naturally) produced […], which may be produced and secreted into the blood stream, exogenous or administered catalase can be absorbed into the blood stream and be available for oxidant scavenging at or adjacent to the endothelial glycocalyx (and SOD bound thereto). Accordingly, introduction and/or administration of catalase can also provide antioxidant activity in blood vessels and/or at the endothelial glycocalyx.

In the case of `N[C@H]1C(O)O[C@H](CO)[C@@H](O)[C@@H]1O` (stereo partly drawn) [glucosamine, Glucosamine], the “incorporation of labeled glucosamine” value [1] is reported as “is incorporated in the glycocalyx”.

With Superoxide dismutase [SOD] the “localization of exogenous labeled SOD” value [2] was “co-localizes (binds (directly) to) the endothelial glycocalyx”.

For catalase, the “catalase concentrations in blood vessels” value [3] was “increases catalase concentrations in blood vessels”.
